Source: PMC3760192

Legend:
Test in all cases: AFM force spectroscopy
[1] = molecular target: MBP-CBD protein
[2] = molecular target: MBP-I^N of the Nostoc species PCC7120 (Nsp) split intein (Nostoc species PCC7120)
[3] = molecular target: MBP-I^N of the Oscillatoria limnetica (Oli) split intein (Oscillatoria limnetica)
[4] = molecular target: MBP-I^N of the Thermosynechococcus vulcanus (Tvu) split intein (Thermosynechococcus vulcanus)

Row | Substance | Fad (adhesion force) [1] | Fad (adhesion force, mode of the lognormal distribution) [2] | Fad (adhesion force, mode of the lognormal distribution) [3] | Fad (adhesion force, mode of the lognormal distribution) [4]
1 | MBP-I^C-CBD of the Thermosynechococcus vulcanus (Tvu) split intein | < 30 pN | – | – | –
2 | MBP-I^C-CBD of the Nostoc species PCC7120 (Nsp) split intein | < 30 pN | – | – | –
3 | cleaved CBD-I^C of the Thermosynechococcus vulcanus (Tvu) split intein (domain or fragment) | – | 49 pN | 52 pN | 53 pN

More lines, now with the values ahead:

Row | Fad (adhesion force) [1] | Fad (adhesion force, mode of the lognormal distribution) [2] | Fad (adhesion force, mode of the lognormal distribution) [3] | Fad (adhesion force, mode of the lognormal distribution) [4] | Substance
4 | < 30 pN | – | – | – | MBP-I^C-CBD of the Oscillatoria limnetica (Oli) split intein
5 | – | 52 pN | 60 pN | 52 pN | cleaved CBD-I^C of the Nostoc species PCC7120 (Nsp) split intein (domain or fragment)
6 | – | 52 pN | 52 pN | 52 pN | cleaved CBD-I^C of the Oscillatoria limnetica (Oli) split intein (domain or fragment)
